From paper PMC6298560, “Staphylococcus aureus Cas9 is a multiple-turnover enzyme” come the findings set out here.

Series [1] has as its target T1, SauCas9 (Staphylococcus aureus, UniProt J7RUA5 1-1053).
T1 sequence: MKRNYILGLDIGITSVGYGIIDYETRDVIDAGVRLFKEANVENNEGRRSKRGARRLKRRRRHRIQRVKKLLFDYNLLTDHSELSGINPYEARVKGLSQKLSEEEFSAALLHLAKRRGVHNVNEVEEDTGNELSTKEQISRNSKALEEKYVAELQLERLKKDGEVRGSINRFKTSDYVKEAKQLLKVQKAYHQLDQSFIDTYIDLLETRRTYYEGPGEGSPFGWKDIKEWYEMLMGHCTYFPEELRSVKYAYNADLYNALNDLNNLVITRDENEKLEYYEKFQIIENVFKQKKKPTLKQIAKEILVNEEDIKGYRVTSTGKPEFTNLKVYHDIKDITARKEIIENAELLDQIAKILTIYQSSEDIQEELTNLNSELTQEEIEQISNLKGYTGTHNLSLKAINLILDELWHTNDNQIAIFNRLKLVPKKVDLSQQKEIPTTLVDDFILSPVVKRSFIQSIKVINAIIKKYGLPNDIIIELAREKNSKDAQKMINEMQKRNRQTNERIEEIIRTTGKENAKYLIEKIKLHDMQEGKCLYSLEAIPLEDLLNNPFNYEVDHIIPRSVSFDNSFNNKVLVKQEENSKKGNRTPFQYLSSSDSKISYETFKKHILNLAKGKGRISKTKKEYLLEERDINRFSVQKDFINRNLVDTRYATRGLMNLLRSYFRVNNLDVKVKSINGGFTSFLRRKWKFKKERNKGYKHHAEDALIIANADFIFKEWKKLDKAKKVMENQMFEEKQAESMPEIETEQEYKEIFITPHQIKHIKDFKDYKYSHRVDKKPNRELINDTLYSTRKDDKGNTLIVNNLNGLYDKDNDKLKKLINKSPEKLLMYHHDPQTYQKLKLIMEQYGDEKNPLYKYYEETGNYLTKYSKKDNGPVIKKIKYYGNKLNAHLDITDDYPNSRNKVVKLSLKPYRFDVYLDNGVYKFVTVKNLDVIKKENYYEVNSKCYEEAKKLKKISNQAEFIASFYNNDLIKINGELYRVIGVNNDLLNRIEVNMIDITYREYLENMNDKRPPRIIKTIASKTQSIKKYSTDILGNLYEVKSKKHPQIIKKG
Briefly: EMSA; 10 mM Mg2+; EMSA: 1x NEBuffer 3.1 (100 mM NaCl, 50 mM Tris-HCl, 10 mM MgCl2, 100 ug/ml BSA, pH 7.9 at 25 C), 50 pM sgRNA, 40 min at 22 C, 6% native TBE gel in cold room. The conditions noted are these: protein: recombinant; label: 5'-32P; single guide RNA, GAAA tetraloop, two 3' stem-loops. (In general: In EMSA bound probe runs differently from free probe, usually more slowly.)

The target in series [2] is SpyCas9 (Streptococcus pyogenes, UniProt Q99ZW2 1-1368). Described as above. Conditions: protein: recombinant; label: 5'-32P; single guide RNA, GAAA tetraloop, three 3' stem-loops.
Chain of SpyCas9 (Q99ZW2 whole entry): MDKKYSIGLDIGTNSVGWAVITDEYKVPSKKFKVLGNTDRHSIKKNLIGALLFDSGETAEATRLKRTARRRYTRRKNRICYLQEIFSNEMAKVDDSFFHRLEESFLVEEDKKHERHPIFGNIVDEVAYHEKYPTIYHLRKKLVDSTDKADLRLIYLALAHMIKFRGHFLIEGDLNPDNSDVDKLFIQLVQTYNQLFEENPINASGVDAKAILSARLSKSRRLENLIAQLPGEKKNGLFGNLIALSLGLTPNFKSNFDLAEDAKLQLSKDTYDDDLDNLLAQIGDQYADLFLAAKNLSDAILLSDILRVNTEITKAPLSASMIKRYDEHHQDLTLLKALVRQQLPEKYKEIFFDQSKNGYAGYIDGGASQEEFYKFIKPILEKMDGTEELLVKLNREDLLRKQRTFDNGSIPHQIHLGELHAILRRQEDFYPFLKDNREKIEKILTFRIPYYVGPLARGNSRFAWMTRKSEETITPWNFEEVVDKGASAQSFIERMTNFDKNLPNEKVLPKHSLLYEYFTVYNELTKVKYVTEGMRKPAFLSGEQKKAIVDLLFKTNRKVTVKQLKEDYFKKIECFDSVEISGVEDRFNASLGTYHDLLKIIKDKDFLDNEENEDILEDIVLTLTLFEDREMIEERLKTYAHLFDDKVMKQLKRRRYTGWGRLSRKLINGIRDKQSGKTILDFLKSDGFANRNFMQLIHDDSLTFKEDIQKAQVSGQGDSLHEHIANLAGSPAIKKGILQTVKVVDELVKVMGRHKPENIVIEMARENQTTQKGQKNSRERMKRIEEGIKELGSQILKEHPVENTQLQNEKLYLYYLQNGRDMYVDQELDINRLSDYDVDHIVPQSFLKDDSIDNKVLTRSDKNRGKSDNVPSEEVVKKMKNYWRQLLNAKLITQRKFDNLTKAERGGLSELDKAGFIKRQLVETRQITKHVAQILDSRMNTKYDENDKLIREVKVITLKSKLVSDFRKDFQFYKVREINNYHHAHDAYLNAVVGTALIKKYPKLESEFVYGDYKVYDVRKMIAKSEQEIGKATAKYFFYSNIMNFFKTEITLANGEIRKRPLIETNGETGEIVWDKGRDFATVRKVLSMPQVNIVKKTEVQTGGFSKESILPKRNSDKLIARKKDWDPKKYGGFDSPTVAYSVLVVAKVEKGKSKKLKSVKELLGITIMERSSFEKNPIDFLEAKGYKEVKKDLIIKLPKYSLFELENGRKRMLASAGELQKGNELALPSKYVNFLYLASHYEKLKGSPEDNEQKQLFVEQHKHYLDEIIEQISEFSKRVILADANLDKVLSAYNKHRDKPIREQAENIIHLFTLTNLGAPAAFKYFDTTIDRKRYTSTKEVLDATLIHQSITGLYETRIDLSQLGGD

B1: S. aureus sgRNA (structured_RNA)
RNA: GUGAAAGUUAAUCGAACUGUGUUUUAGUACUCUGGAAACAGAAUCUACUAAAACAAGGCAAAAUGCCGUGUUUAUCUCGUCAACUUGUUGGCGAGAU
As usually defined, the Kd is the equilibrium constant for the complex coming apart. Take B1: the Kd in series [1] turned out to be 3.4 nM.

B2: S. pyogenes sgRNA (structured_RNA)
RNA: GUGAAAGUUAAUCGAACUGUGUUUUAGAGCUAGAAAUAGCAAGUUAAAAUAAGGCUAGUCCGUUAUCAACUUGAAAAAGUGGCACCGAGUCGGUGCUUUU
Take B2: the Kd in series [2] amounted to 0.29 ± 0.08 nM.
